Data from patent US20260167721A1 (ABLEXIS, published 2026).
Substitutions are numbered along the chain they refer to. Blank lines part the entries; values can stand above or below the binder they belong to.

What was measured:
[1] = target: T1, recombinant human CD3 epsilon/delta heterodimer (human, UniProt P07766 23-126; P04234 22-105); test: Octet BLI, mAb on FAB2G sensor, hCD3 E/D 200-50 nM; R^2 0.98;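 further: antibodies purified from hybridoma supernatants, measured by Octet binding to recombinant human CD3 protein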
T1 construct: Recombinant protein in solution (200-50 nM) in the Octet assay; also called hCD3 E/D; human CD3E/D

[2] = target: T2, recombinant human CD3 epsilon/gamma heterodimer (human, UniProt P07766 23-126; P09693 23-116); test: Octet BLI, mAb on FAB2G sensor, hCD3 E/G 200-50 nM; R^2 0.99
T2 construct: Recombinant protein in solution (200-50 nM) in the Octet assay; also called hCD3 E/G

[3] = target: T1, recombinant human CD3 epsilon/delta …; test: Octet BLI, mAb on FAB2G sensor, hCD3 E/D 200-50 nM; R^2 1.00
[4] = target: T1, recombinant human CD3 epsilon/delta …; test: Octet BLI, mAb on FAB2G sensor, hCD3 E/D 200-50 nM; R^2 0.99
[5] = target: T2, recombinant human CD3 epsilon/gamma …; test: Octet BLI, mAb on FAB2G sensor, hCD3 E/G 200-50 nM; R^2 0.98
[6] = target: T3, human CD3 (TCR/CD3 complex on the cell surface) (human, UniProt P07766 23-207; P04234 22-171; P09693 23-182); test: flow cytometry, Jurkat WT cells, 1 ug/mL
T3 construct: whole, on cells; Native CD3 on human Pan-T cells or Jurkat wild-type cells; also called CD3 on Pan-T cells; CD3 on Jurkat WT cells

[7] = target: T3, human CD3 (TCR/CD3 complex on the cell …); test: flow cytometry, Pan-T cells, 1 ug/mL
[8] = target: T3, human CD3 (TCR/CD3 complex on the cell …); test: flow cytometry, Jurkat WT cells, 10 ug/mL
[9] = target: T3, human CD3 (TCR/CD3 complex on the cell …); test: flow cytometry, Pan-T cells, 10 ug/mL
[10] = target: T3, human CD3 (TCR/CD3 complex on the cell …); test: flow cytometry, Jurkat WT gMFI over Jurkat KO gMFI, 10 ug/mL
[11] = target: T3, human CD3 (TCR/CD3 complex on the cell …); test: flow cytometry, Jurkat WT gMFI over Jurkat KO gMFI, 1 ug/mL

T1 sequence (P07766 23-126, stated change not applied, chain 1 of 2): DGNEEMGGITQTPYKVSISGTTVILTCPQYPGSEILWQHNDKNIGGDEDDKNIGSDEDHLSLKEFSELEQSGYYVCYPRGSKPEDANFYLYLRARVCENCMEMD
T1 sequence (P04234 22-105, stated change not applied, chain 2 of 2): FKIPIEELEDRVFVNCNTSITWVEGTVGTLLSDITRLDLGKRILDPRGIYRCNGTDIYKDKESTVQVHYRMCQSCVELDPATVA
T2 sequence (P07766 23-126, chain 1 of 2): as the sequence (P07766 23-126, stated change not applied, chain 1 of 2) above
T2 sequence (P09693 23-116, chain 2 of 2): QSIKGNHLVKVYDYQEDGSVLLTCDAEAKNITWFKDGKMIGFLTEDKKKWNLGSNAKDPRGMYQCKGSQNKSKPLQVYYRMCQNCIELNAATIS
T3 sequence (P07766 23-207, chain 1 of 3): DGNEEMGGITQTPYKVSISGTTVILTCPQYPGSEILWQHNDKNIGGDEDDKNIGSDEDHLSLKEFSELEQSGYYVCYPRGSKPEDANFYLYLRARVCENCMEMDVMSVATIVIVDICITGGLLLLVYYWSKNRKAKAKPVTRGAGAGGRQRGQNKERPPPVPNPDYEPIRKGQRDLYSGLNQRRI
T3 sequence (P04234 22-171, chain 2 of 3): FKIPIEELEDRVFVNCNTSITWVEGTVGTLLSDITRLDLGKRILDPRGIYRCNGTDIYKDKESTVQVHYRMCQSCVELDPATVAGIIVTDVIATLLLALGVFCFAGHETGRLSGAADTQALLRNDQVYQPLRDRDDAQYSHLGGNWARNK
T3 sequence (P09693 23-182, chain 3 of 3): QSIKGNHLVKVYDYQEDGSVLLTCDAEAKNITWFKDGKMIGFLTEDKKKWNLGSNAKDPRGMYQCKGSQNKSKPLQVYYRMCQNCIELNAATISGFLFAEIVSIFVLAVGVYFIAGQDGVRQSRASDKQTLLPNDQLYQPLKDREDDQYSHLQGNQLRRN

B1: ABL-CD3-57 (antibody, V domains shown)
VH: EVQLVESGGGLVKPGGSLRLSCAASGFTFSSYTMNWVRQAPGKGLEWVSSISTSSRYIYYTDSVKGRFTISRDDAKNSLYLQMNSLRAEDTAVYYCTRNWGYDVFDIWGQGTMVIVSS
VL: QPVLTQPSSHSASSGASVRLTCMLSSGFSVGDFWIRWYQQKPGNPPRYLLYYHSDSNKGQGSGVPSRFSGSNDASANAGILRISGLQPEDEADYYCGTWHSNSKTQVFGGGTKLTVL
notes: Chimeric hybridoma mAb: human V, CH1, upper hinge; mouse middle hinge, CH2, CH3
Kd [1]: 4.29 nM | Response [1]: 0.49 | koff [1]: 0.000277 s⁻¹ | kon [1]: 64700 M⁻¹ s⁻¹ | Kd [2]: 3.97 nM | Response [2]: 0.54 | koff [2]: 0.00026 s⁻¹ | kon [2]: 65400 M⁻¹ s⁻¹

B4: ABL-CD3-46 (antibody, V domains shown)
VH: EVQLVESGGGLVKPGGSLRLSCSASGFTFSTYTMNWVRQAPGKGLDWVSSISKSSTYIYYADSVKGRFTISRDNAKNSLYLQMNSLRAEDTAVYYCARERRTLAFDIWGQGTMVTVSS
VL: NFMLTQPHSVSESPGKTVTISCTRSSGSIASNYVQWYQQRPGSSPTTVIYEDNQRPSGVPDRFSGSIDSSSNSASLTISGLKTEDEADYYCQCYDRSNRVFGGGTKLTVL
notes: as for B1
Kd [4]: 9.48 nM | Response [4]: 1.02 | koff [4]: 0.00171 s⁻¹ | kon [4]: 180000 M⁻¹ s⁻¹ | Kd [5]: 16.3 nM | Response [5]: 0.88 | koff [5]: 0.00333 s⁻¹ | kon [5]: 204000 M⁻¹ s⁻¹

B6: ABL-CD3-49 (antibody, V domains shown)
VH: B4 VH with D46E, T56S, A61T
VL: B4 VL with P56S
notes: as for B1
Kd [4]: 6.52 nM | Response [4]: 0.93 | koff [4]: 0.00131 s⁻¹ | kon [4]: 200000 M⁻¹ s⁻¹ | Kd [5]: 11.4 nM | Response [5]: 0.82 | koff [5]: 0.00253 s⁻¹ | kon [5]: 223000 M⁻¹ s⁻¹

B7: ABL-CD3-43 (antibody, V domains shown)
VH: EVQLVQSGAEVKKPGESLKISCKGSEYSFTTYWIAWVRQMPGKGLEWMGIIYPGDSDTTYSPSFQGQVTISADKSISIAFLQWSSLKASDTAMYYCARQGELDAFDIWGQGTMVTVSS
VL: QSALTQPASVSGSPGQSITISCTGTSSDVGSYNLVSWYQQHPGKAPKLMIYEDIRRPSGVSNRFSASKSGDTASLTISGLQAEDEADYYCCSYAGSTTFAIFGGGTKLTVL
notes: as for B1
Kd [4]: 6.2 nM | Response [4]: 0.62 | koff [4]: 0.000754 s⁻¹ | kon [4]: 122000 M⁻¹ s⁻¹ | Kd [5]: 6.94 nM | Response [5]: 0.62 | koff [5]: 0.00104 s⁻¹ | kon [5]: 150000 M⁻¹ s⁻¹

B8: ABL-CD3-41 (antibody, V domains shown)
VH: EVQLVESGGGLVKPGGSLRLSCAASGFTFSSYSMNWVRQAPGKGLEWVSSVNSRGSYIYYADSVKGRFTISRDNAKDSLYLQMNSLRADDTAVYYCARDRRELLLDYWGQGTLVTVSS
VL: SYELTQPPSVSVSPGQTARITCSGDALPKKYAYWYQQKSGQAPVLVIYEDSKRPSGIPERFSGSSSGTMATLTISGAQVEDEADYYCYSTDSSGNHCWVFGGGTKLTVL
notes: as for B1
Kd [2]: 295 nM | Response [2]: 0.1 | koff [2]: 0.25 s⁻¹ | kon [2]: 846000 M⁻¹ s⁻¹ | Kd [3]: 85 nM | Response [3]: 0.34 | koff [3]: 0.0395 s⁻¹ | kon [3]: 464000 M⁻¹ s⁻¹

Continued, values first:

Kd [2]: 43.3 nM | Response [2]: 0.58 | koff [2]: 0.00487 s⁻¹ | kon [2]: 113000 M⁻¹ s⁻¹ | Kd [3]: 12.7 nM | Response [3]: 0.81 | koff [3]: 0.00105 s⁻¹ | kon [3]: 83100 M⁻¹ s⁻¹
B2: ABL-CD3-59 (antibody, V domains shown)
VH: EVQLVESGGGLVKPGGSLRLSCTASGFTLSSYSMNWVRQAPGKGLEWVSSLSRSSNYIYYAVSVKGRFTISRDNAKNSLYLQMNSLRAEDTAVYYCARERWELLYFDYWGQGTLVTVSS
VL: B4 VL with K82Q, C93S, R96N, N98I
notes: as for B1

Kd [4]: 11.5 nM | Response [4]: 0.89 | koff [4]: 0.00145 s⁻¹ | kon [4]: 127000 M⁻¹ s⁻¹ | Kd [5]: 90.4 nM | Response [5]: 0.34 | koff [5]: 0.0182 s⁻¹ | kon [5]: 202000 M⁻¹ s⁻¹
B3: ABL-CD3-63 (antibody, V domains shown)
VH: QVQLQESGPGLVKPSETLSLTCTVSGGSISSYYWSWIRQPAGKGLEWIGRIYTSGSTKYNPSLKSRVTMSVDTSKNQFSLKLISVTAADTAVYFCARERIRDLYFDYWGQGTLVTVSS
VL: B4 VL with S25T, D88A, C93S
notes: as for B1

Kd [4]: 231 nM | Response [4]: 0.1 | koff [4]: 0.0962 s⁻¹ | kon [4]: 417000 M⁻¹ s⁻¹ | Kd [5]: 90.7 nM | Response [5]: 0.07 | koff [5]: 0.0583 s⁻¹ | kon [5]: 642000 M⁻¹ s⁻¹
B5: ABL-CD3-60 (antibody, V domains shown)
VH: EVQLVESGGGLVKPGGSLRLSCAASGFTFSIYSMNWVRQAPGKGLEWVSSISSGSSYIYYADSVKGRFTISRDNAKSSLFLQMNSLRAEDTAVYYCAREKRELLFDYWGQGTLVTVSS
VL: B4 VL with S69R, C93S, R96S
notes: as for B1

gMFI [6]: 58000 gMFI | % Positive [7]: 100% | gMFI [7]: 539000 gMFI | gMFI [8]: 63600 gMFI | % Positive [9]: 99.9% | gMFI [9]: 601000 gMFI | Jurkat WT/KO (Fold) [10]: 13.6 fold | Jurkat WT/KO (Fold) [11]: 12.9 fold
B9: CD3 × CD33-BspAb68 (bispecific antibody)
scFv-Fc: EVQLVESGGGLVKPGGSLRLSCSASGFTFSTYTMNWVRQAPGKCLEWVSSISKSSSYIYYTDSVKGRFTISRDNAKNSLYLQMNSLRAEDTAVYYCARERRTLAFDIWGQGTMVTVSSGGGGSGGGGSGGGGSGGGGSNFMLTQPHSVSESPGKTVTISCTRSSGSIASNYVQWYQQRPGSSPTTVIYEDNQRSSGVPDRFSGSIDSSSNSASLTISGLKTEDEADYYCQSYDRSNRVFGCGTKLTVLGGGGSDKTHTCPPCPAPEFEGGPSVFLFPPKPKDTLMISRTPEVTCVVVDVSHEDPEVKFNWYVDGVEVHNAKTKPREEQYNSTYRVVSVLTVLHQDWLNGKEYKCKVSNKALPASIEKTISKAKGQPREPQVYTLPPCREEMTKNQVSLWCLVKGFYPSDIAVEWESNGQPENNYKTTPPVLDSDGSFFLYSKLTVDKSRWQQGNVFSCSVMHEALHNHYTQKSLSLSPGK
heavy: EVQLVQSGAEVKKPGSSVKVSCKASGYTITDSNIHWVRQAPGQSLEWIGYIYPYNGGTDYNQKFKNRATLTVDNPTNTAYMELSSLRSEDTAFYYCVNGNPWLAYWGQGTLVTVSSASTKGPSVFPLAPSSKSTSGGTAALGCLVKDYFPEPVTVSWNSGALTSGVHTFPAVLQSSGLYSLSSVVTVPSSSLGTQTYICNVNHKPSNTKVDKRVEPKSCDKTHTCPPCPAPEFEGGPSVFLFPPKPKDTLMISRTPEVTCVVVDVSHEDPEVKFNWYVDGVEVHNAKTKPREEQYNSTYRVVSVLTVLHQDWLNGKEYKCKVSNKALPASIEKTISKAKGQPREPQVCTLPPSREEMTKNQVSLSCAVKGFYPSDIAVEWESNGQPENNYKTTPPVLDSDGSFFLVSKLTVDKSRWQQGNVFSCSVMHEALHNRFTQKSLSLSPGK
light: DIQLTQSPSTLSASVGDRVTITCRASESLDNYGIRFLTWFQQKPGKAPKLLMYAASNQGSGVPSRFSGSGSGTEFTLTISSLQPDDFATYYCQQTKEVPWSFGQGTKVEVKRTVAAPSVFIFPPSDEQLKSGTASVVCLLNNFYPREAKVQWKVDNALQSGNSQESVTEQDSKDSTYSLSSTLTLSKADYEKHKVYACEVTHQGLSSPVTKSFNRGEC
notes: KiH heterodimer

gMFI [6]: 16500 gMFI | % Positive [7]: 99.7% | gMFI [7]: 95300 gMFI | gMFI [8]: 25800 gMFI | % Positive [9]: 99.8% | gMFI [9]: 281000 gMFI | Jurkat WT/KO (Fold) [10]: 8.7 fold | Jurkat WT/KO (Fold) [11]: 6.3 fold
B10: CD3 × CD33-BspAb69 (bispecific antibody)
chain 1: EVQLVESGGGLVKPGGSLRLSCAASGFTFSYYSMNWVRQAPGKCLEWVSSISRSTTYIYYADSVKGRFTISRDNAKNSLYLQMNSLRAEDTAVYYCARDGKGAIFLDYWGQGTLVTVSSGGGGSGGGGSGGGGSGGGGSSYELTQPPSVSVSPGQTARITCSGDALPKKYAYWYQQKSGQAPVLVIYEDSKRPSGIPERFSGSSSGTMATLTISGAQVEDEADYYCYSTDSSGNHRVFGCGTKLTVLDKTHTCPPCPAPEFEGGPSVFLFPPKPKDTLMISRTPEVTCVVVDVSHEDPEVKFNWYVDGVEVHNAKTKPREEQYNSTYRVVSVLTVLHQDWLNGKEYKCKVSNKALPASIEKTISKAKGQPREPQVYTLPPCREEMTKNQVSLWCLVKGFYPSDIAVEWESNGQPENNYKTTPPVLDSDGSFFLYSKLTVDKSRWQQGNVFSCSVMHEALHNHYTQKSLSLSPGK
chain 2: B9 heavy
chain 3: B9 light
